Results reported in article doi:10.1101/2021.08.06.455374 (bioRxiv, 2021).

Molecular target: the molecule itself
Assay: SEC

B1: dolphin Prestin (SLC26A5) (natural protein)
chain: MDHVEETEILAATQRYYVERPIFSHPVLQERLHKKDKISESIGDKLKQAFTCTPKKIRNIIYMFLPITKWLPAYRFKEYVLGDIVSGISTGVLQLPQGLAFAMLAAVPPVFGLYSSFYPVIMYCFFGTSRHISIGPFAVISLMIGGVAVRLVPDDIVIPGGVNATNSTEARDALRVKVAMSVTLLTGIIQFCLGVCRFGFVAIYLTEPLVRGFTTAAAVHVFTSMLKYLFGVKTKRYSGIFSVVYSTVAVLQNVKNLNVCSLGVGLMVFGLLLGGKEFNERFKEKLPAPIPLEFFAVVMGTGISAGFSLHESYNVDVVGTLPLGLLPPANPDTSLFHLVYVDAIAIAIVGFSVTISMAKTLANKHGYQVDGNQELIALGLCNSTGSLFQTFAISCSLSRSLVQEGTGGKTQLAGCLASLMILLVILATGFLFESLPQAVLSAIVIVNLKGMFMQFSDLPFFWRTSKIELTIWLTTFVSSLFLGLDYGLITAVIIALMTVIYRTQSPSYIVLGQLPDTDVYIDIDAYEEVKEVPGIKIFQINAPIYYANSDLYSSALKRKTGVNPAFILGARRKAMKKYAKEVGNANMANATVVKVDAEVDAEDGTKPEEEEDEIKYPPIVTKSTLPEELQRFMPPGDNVHTIILDFTQVNFMDSVGVKTLAGIVKEYGDVGIYVYLAGCSAQVVSDLTQNQFFENPALLDLLFHSIHDAVLGSQVREALAEQEATAAPPQEDSEPNATPEA
With B1 the “stoichiometry N” value was 2.
